# B1: Tryptophan synthase α subunit (TrpA) from Francisella tularensis (enzyme)
# chain: SNAMTNRYTTLFANLEKRNEGAFIPFVTIGDPNKALSFEIIDTLVSSGADALELGIPFSDPLADGPTIQEANIRALESGITPKDCFDILTKIRAKYPHIPIGLLLYANLVYANGIENFYQKCLDAGVDSILIADVPAHESKEFRDIAKKVGIAQIFIAPPDASESTLKQISELGSGYTYLLSRVGVTGTETAANMPVEDVLTKLREYNAPKPVLGFGISKPEQVQQAIKAGAAGAISGSATVKIIQNNISNKQKMLNELTYFVKEMKAATLN
# notes: also called FtTrpA; α subunit of FtTrpAB
# B2: Tryptophan synthase β subunit (TrpB) from Francisella tularensis (enzyme)
# chain: MSKLNAYFGEYGGQFVPQILVPALDQLEQEFIKAQADESFKQEFKELLQEYAGRPTALTKTRNIVKNTRTKLYLKREDLLHGGAHKTNQVLGQALLAKRMGKKEIIAETGAGQHGVATALACALLDLKCRVYMGAKDVERQSPNVFRMKLMGAEVIPVHSGSATLKDACNEALRDWSANYSKAHYLLGTAAGPHPFPTIVREFQRMIGEETKQQMLAKEGRLPDAVIACVGGGSNAIGMFADFIDEKNVKLIGVEPAGKGIETGEHGAPLKHGKTGIFFGMKAPLMQNSDGQIEESYSISAGLDFPSVGPQHAHLLAIGRAKYASATDDEALDAFKLLCKKEGIIPALESSHALAHALKLAYEDPNKEQLLVVNLSGRGDKDIFTVHDILKEKGEI
# notes: also called FtTrpB; β subunit of FtTrpAB
# Tests used:
# [1] = target: B2; test: crystal structure; conditions: both partners purified
# [2] = target: the molecule itself; test: crystal structure
Binder,binding result [1],binding result [2]
B1,binds,
B2,,binds

# Source: paper PMC6608616 (IUCrJ, 2019)
